{"source": "patent US20130209454A1", "binders": {"B1": {"name": "NIH45-46^G54W IgG (antibody, name in Kabat numbering, V domains shown)", "VH": "QVRLSQSGGQMKKPGESMRLSCRASGYEFLNCPINWIRLAPGRRPEWMGWLKPRWGAVNYARKFQGRVTMTRDVYSDTAFLELRSLTSDDTAVYFCTRGKYCTARDYYNWDFEHWGRGAPVTVSS", "VL": "EIVLTQSPATLSLSPGETAIISCRTSQSGSLAWYQQRPGQAPRLVIYSGSTRAAGIPDRFSGSRWGADYNLSISNLESGDFGVYYCQQYEFFGQGTKVQVDI"}}, "experiment_in_all_cases": "cell-based or functional assay", "key": {"[1]": {"biological_target": "HIV-1 strain Ce703010054_2A2 envelope (gp120) (HIV-1)"}, "[2]": {"biological_target": "HIV-1 Env of strain R1166.c01 (HIV-1)"}, "[3]": {"biological_target": "HIV-1 strain WITO4160.33 envelope (gp120) (HIV-1)"}, "[4]": {"biological_target": "HIV-1 Env of strain Q769.d22 (HIV-1)"}, "[5]": {"biological_target": "HIV-1 strain 62357_14_D3_4589 envelope (gp120) (HIV-1)"}, "[6]": {"biological_target": "HIV-1 Env of strain 0330.v4.c3 (HIV-1)"}, "[7]": {"biological_target": "HIV-1 strain THRO4156.18 envelope (gp120) (HIV-1)"}, "[8]": {"biological_target": "HIV-1 strain Ce0682_E4 envelope (gp120) (HIV-1)"}, "[9]": {"biological_target": "HIV-1 strain ZM247v1(Rev-) envelope (gp120) (HIV-1)"}, "[10]": {"biological_target": "HIV-1 strain ZM135M.PL10a envelope (gp120) (HIV-1)"}, "[11]": {"biological_target": "HIV-1 Env of strain CAP210.2.00.E8 (HIV-1)"}, "[12]": {"biological_target": "HIV-1 strain R2184.04 envelope (gp120) (HIV-1)"}, "[13]": {"biological_target": "HIV-1 strain 231966.c02 envelope (gp120) (HIV-1)"}, "[14]": {"biological_target": "HIV-1 Env of strain REJO4541.67 (HIV-1)"}, "[15]": {"biological_target": "HIV-1 Env of strain Q461.e2 (HIV-1)"}, "[16]": {"biological_target": "HIV-1 Env of strain 620345.c01 (HIV-1)"}, "[17]": {"biological_target": "HIV-1 Env of strain 1054_07_TC4_1499 (HIV-1)"}, "[18]": {"biological_target": "HIV-1 Env of strain Q842.d12 (HIV-1)"}, "[19]": {"biological_target": "HIV-1 Env of strain 6480.v4.c25 (HIV-1)"}, "[20]": {"biological_target": "HIV-1 Env of strain Ce703010054_2A2 (HIV-1)"}, "[21]": {"biological_target": "HIV-1 strain C1080.c03 envelope (gp120) (HIV-1)"}, "[22]": {"biological_target": "HIV-1 strain Ce1176_A3 envelope (gp120) (HIV-1)"}, "[23]": {"biological_target": "HIV-1 Env of strain 1006_11_C3_1601 (HIV-1)"}, "[24]": {"biological_target": "HIV-1 Env of strain 3415.v1.c1 (HIV-1)"}, "[25]": {"biological_target": "HIV-1 strain C2101.c01 envelope (gp120) (HIV-1)"}, "[26]": {"biological_target": "HIV-1 Env of strain 6535.3 (HIV-1)"}, "[27]": {"biological_target": "HIV-1 Env of strain QH0692.42 (HIV-1)"}, "[28]": {"biological_target": "HIV-1 Env of strain X1254_c3 (HIV-1)"}, "[29]": {"biological_target": "HIV-1 strain Ce2010_F5 envelope (gp120) (HIV-1)"}, "[30]": {"biological_target": "HIV-1 strain CNE58 envelope (gp120) (HIV-1)"}, "[31]": {"biological_target": "HIV-1 Env of strain 0815.v3.c3 (HIV-1)"}, "[32]": {"biological_target": "HIV-1 Env of strain 231966.c02 (HIV-1)"}, "[33]": {"biological_target": "HIV-1 Env of strain T278-50 (HIV-1)"}, "[34]": {"biological_target": "HIV-1 strain 1056_10_TA11_1826 envelope (gp120) (HIV-1)"}, "[35]": {"biological_target": "HIV-1 strain X1254_c3 envelope (gp120) (HIV-1)"}, "[36]": {"biological_target": "HIV-1 strain TRO.11 envelope (gp120) (HIV-1)"}, "[37]": {"biological_target": "HIV-1 Env of strain ZM249M.PL1 (HIV-1)"}, "[38]": {"biological_target": "HIV-1 Env of strain Ce1176_A3 (HIV-1)"}, "[39]": {"biological_target": "HIV-1 strain PVO.4 envelope (gp120) (HIV-1)"}, "[40]": {"biological_target": "HIV-1 strain Du156.12 envelope (gp120) (HIV-1)"}, "[41]": {"biological_target": "HIV-1 strain CNE20 envelope (gp120) (HIV-1)"}, "[42]": {"biological_target": "HIV-1 strain ZM53M.PB12 envelope (gp120) (HIV-1)"}, "[43]": {"biological_target": "HIV-1 strain 3415.v1.c1 envelope (gp120) (HIV-1)"}, "[44]": {"biological_target": "HIV-1 strain WEAU_d15_410_787 envelope (gp120) (HIV-1)"}, "[45]": {"biological_target": "HIV-1 strain CNE30 envelope (gp120) (HIV-1)"}, "[46]": {"biological_target": "HIV-1 Env of strain T255-34 (HIV-1)"}, "[47]": {"biological_target": "HIV-1 Env of strain T251-18 (HIV-1)"}, "[48]": {"biological_target": "HIV-1 strain 620345.c01 envelope (gp120) (HIV-1)"}, "[49]": {"biological_target": "HIV-1 strain AC10.0.29 envelope (gp120) (HIV-1)"}, "[50]": {"biological_target": "HIV-1 strain Du422.1 envelope (gp120) (HIV-1)"}}}
{"binder": "B1", "values": [{"measurement": "neutralization IC80", "setting": "[1]", "value": 0.077, "unit": "mg/L"}, {"measurement": "neutralization IC50", "setting": "[2]", "value": 0.13, "unit": "mg/L"}, {"measurement": "neutralization IC80", "setting": "[3]", "value": 0.04, "unit": "mg/L"}, {"measurement": "neutralization IC50", "setting": "[4]", "value": "< 0.001", "unit": "mg/L"}, {"measurement": "neutralization IC80", "setting": "[5]", "value": 0.07, "unit": "mg/L"}, {"measurement": "neutralization IC50", "setting": "[6]", "value": 0.03, "unit": "mg/L"}, {"measurement": "neutralization IC80", "setting": "[7]", "value": 1.81, "unit": "mg/L"}, {"measurement": "neutralization IC80", "setting": "[8]", "value": 0.039, "unit": "mg/L"}, {"measurement": "neutralization IC80", "setting": "[9]", "value": 2.6, "unit": "mg/L"}, {"measurement": "neutralization IC80", "setting": "[10]", "value": 0.16, "unit": "mg/L"}, {"measurement": "neutralization IC50", "setting": "[11]", "value": "> 50", "unit": "mg/L"}, {"measurement": "neutralization IC80", "setting": "[12]", "value": 0.036, "unit": "mg/L"}, {"measurement": "neutralization IC80", "setting": "[13]", "value": 0.11, "unit": "mg/L"}, {"measurement": "neutralization IC50", "setting": "[14]", "value": 0.002, "unit": "mg/L"}, {"measurement": "neutralization IC50", "setting": "[15]", "value": 0.009, "unit": "mg/L"}, {"measurement": "neutralization IC50", "setting": "[16]", "value": "> 50", "unit": "mg/L"}, {"measurement": "neutralization IC50", "setting": "[17]", "value": 0.04, "unit": "mg/L"}, {"measurement": "neutralization IC50", "setting": "[18]", "value": 0.005, "unit": "mg/L"}, {"measurement": "neutralization IC50", "setting": "[19]", "value": 0.004, "unit": "mg/L"}, {"measurement": "neutralization IC50", "setting": "[20]", "value": 0.027, "unit": "mg/L"}, {"measurement": "neutralization IC80", "setting": "[21]", "value": 0.91, "unit": "mg/L"}, {"measurement": "neutralization IC80", "setting": "[22]", "value": 0.45, "unit": "mg/L"}, {"measurement": "neutralization IC50", "setting": "[23]", "value": "< 0.001", "unit": "mg/L"}, {"measurement": "neutralization IC50", "setting": "[24]", "value": "< 0.001", "unit": "mg/L"}, {"measurement": "neutralization IC80", "setting": "[25]", "value": 0.17, "unit": "mg/L"}, {"measurement": "neutralization IC50", "setting": "[26]", "value": 0.03, "unit": "mg/L"}, {"measurement": "neutralization IC50", "setting": "[27]", "value": 0.37, "unit": "mg/L"}, {"measurement": "neutralization IC50", "setting": "[28]", "value": 0.002, "unit": "mg/L"}, {"measurement": "neutralization IC80", "setting": "[29]", "value": 0.187, "unit": "mg/L"}, {"measurement": "neutralization IC80", "setting": "[30]", "value": 0.05, "unit": "mg/L"}, {"measurement": "neutralization IC50", "setting": "[31]", "value": "< 0.001", "unit": "mg/L"}, {"measurement": "neutralization IC50", "setting": "[32]", "value": 0.02, "unit": "mg/L"}, {"measurement": "neutralization IC50", "setting": "[33]", "value": "> 50", "unit": "mg/L"}, {"measurement": "neutralization IC80", "setting": "[34]", "value": 0.16, "unit": "mg/L"}, {"measurement": "neutralization IC80", "setting": "[35]", "value": 0.018, "unit": "mg/L"}, {"measurement": "neutralization IC80", "setting": "[36]", "value": 0.13, "unit": "mg/L"}, {"measurement": "neutralization IC50", "setting": "[37]", "value": 0.002, "unit": "mg/L"}, {"measurement": "neutralization IC50", "setting": "[38]", "value": 0.16, "unit": "mg/L"}, {"measurement": "neutralization IC80", "setting": "[39]", "value": 0.16, "unit": "mg/L"}, {"measurement": "neutralization IC80", "setting": "[40]", "value": 0.005, "unit": "mg/L"}, {"measurement": "neutralization IC80", "setting": "[41]", "value": 0.48, "unit": "mg/L"}, {"measurement": "neutralization IC80", "setting": "[42]", "value": 0.16, "unit": "mg/L"}, {"measurement": "neutralization IC80", "setting": "[43]", "value": 0.023, "unit": "mg/L"}, {"measurement": "neutralization IC80", "setting": "[44]", "value": 0.003, "unit": "mg/L"}, {"measurement": "neutralization IC80", "setting": "[45]", "value": 0.196, "unit": "mg/L"}, {"measurement": "improvement of neutralization potency over NIH45-46", "setting": "[46]", "value": "> 700", "unit": "fold"}, {"measurement": "neutralization IC50", "setting": "[46]", "value": "< 0.001", "unit": "mg/L"}, {"measurement": "neutralization IC50", "setting": "[47]", "value": 0.26, "unit": "mg/L"}, {"measurement": "neutralization IC80", "setting": "[48]", "value": "> 50", "unit": "mg/L"}, {"measurement": "neutralization IC80", "setting": "[49]", "value": 0.63, "unit": "mg/L"}, {"measurement": "neutralization IC80", "setting": "[50]", "value": "> 50", "unit": "mg/L"}]}
